Data: US7217693B2, “Human G protein-coupled receptor expressed in the dorsal root ganglia” (National Research Council of Canada, priority 1997, dated 2007)

Molecular target: T1, human clone 24 (Homo sapiens, UniProt Q96LB2, E310Q/I312T/I5V)
T1 construct: expressed in transfected cells
Assay: Calcium signaling (FURA-2) in stably transfected HEK293 cells 293/pcDNA3-HML-HA24
Assay type: cell-based
Settings: stably transfected HEK293 cell line 293/pcDNA3-HML-HA24, FURA-2 AM, peptides added successively
Protocol: The coding sequence of human clone 24 was transferred into a pcDNA3 vector and modified to add a haemaglutinin tag at the C-terminus of the receptor sequence. This clone, designated as pcDNA3-HML-HA24 was transfected into HEK293 cells using a modified CaCl2 method (Maniatis, Molecular Cloning: A Laboratory Manual, Cold Spring Harbor Laboratory Press (1989)). The cells were maintained in culture medium at 37° C., 5% CO2 and diluted 10 fold every 3 days.
The cells were inoculated in 90 mm tissue culture dishes (5×10^5 cells per flask) in Dulbecco's Modified Essential Medium (DMEM, Gibco BRL), supplemented with 10% fetal bovine serum (FBS), 100 U/ml penicillin, 100 μg/ml streptomycin and 0.25 μg/ml fungizone. One day after inoculation, cells were transiently transfected with 30 μg of plasmid DNA per dish. The cells were harvested 48 hours post transfection for analysis. The expression of the gene was first checked by immunoprecipitation and western blotting with an anti-haemaglutinin antibody. A protein of approximately 43 KD was detected in stably as well as transiently transfected HEK293 cells, but not in control cells.
Stably transfected HEK293 cells were obtained after approximately 21 days of selection in culture medium containing 800 μg/ml G418. Calcium signaling measurement was performed with one of these stably transfected cell line, 293/pcDNA3-HML-HA24. The cells were grown on a 24 mm round glass cover slides to 50–70% confluence. […] The calcium displacement was measured using a PTI (Photon Technology International) D104 photometer equipped with a PTI Delta RAM High speed multiwavelength illuminator, a PTI SC500 Shutter controller, a PTI LPS220 ARC lamp supply and the PTI FELIX software, v.1.2. […] The cells were exposed to 340 and 380 nm light and the 510 nm light emitted by the cells was recorded. […]

T1 sequence (Q96LB2 whole entry I5V/E310Q/I312T): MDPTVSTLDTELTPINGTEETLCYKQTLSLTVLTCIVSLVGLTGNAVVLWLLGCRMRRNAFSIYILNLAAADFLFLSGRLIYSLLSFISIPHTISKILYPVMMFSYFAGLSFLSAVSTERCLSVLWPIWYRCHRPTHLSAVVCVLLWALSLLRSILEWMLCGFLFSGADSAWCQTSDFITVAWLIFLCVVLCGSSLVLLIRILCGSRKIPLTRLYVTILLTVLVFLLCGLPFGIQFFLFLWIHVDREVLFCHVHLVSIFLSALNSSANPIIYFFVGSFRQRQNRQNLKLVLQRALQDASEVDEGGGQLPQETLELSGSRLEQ

Substance	calcium displacement response upon stimulation
angiotensin II (DRVYIHPF) [peptide added to DRR-transfected cells in calcium signaling assay]	a significant response
Angiotensin I (DRVYIHPFHL) [peptide added to DRR-transfected cells in calcium signaling assay]	no response
angiotensin III	a significant response
